Results as given in patent US20260167699A1 (Chugai, published 2026).
Positions count from the first letter of the chain named.

T1: FcγRIIb extracellular domain with C-terminal His tag (human, UniProt P31994 43-217)
T1 construct: extracellular domain; also called 2b; CD32
T1 sequence: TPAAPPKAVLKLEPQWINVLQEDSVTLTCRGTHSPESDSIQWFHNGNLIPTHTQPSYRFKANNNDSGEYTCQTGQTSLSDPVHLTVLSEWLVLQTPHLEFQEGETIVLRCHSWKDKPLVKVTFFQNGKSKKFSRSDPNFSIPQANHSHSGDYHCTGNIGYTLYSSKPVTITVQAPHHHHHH

T2: FcγRIIa(R) extracellular domain with C-terminal His tag (human, UniProt P12318 34-217)
T2 construct: extracellular domain; R131 allotype; also called 2aR; CD32
T2 sequence: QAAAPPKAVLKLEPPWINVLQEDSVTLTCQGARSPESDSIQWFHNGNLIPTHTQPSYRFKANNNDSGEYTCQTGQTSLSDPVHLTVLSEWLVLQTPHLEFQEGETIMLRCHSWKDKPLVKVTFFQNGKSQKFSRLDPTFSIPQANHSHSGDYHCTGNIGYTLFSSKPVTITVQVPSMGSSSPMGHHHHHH

T3: FcγRIIa(H) extracellular domain with C-terminal His tag (human, UniProt P12318 34-217)
T3 construct: extracellular domain; H131 allotype; also called 2aH; CD32
T3 sequence: T2 sequence with R134H

B1: GpH7-A5/GpH7-B3 variant K334_10E/GpL16-k0 (antibody, human IgG1, kappa)
heavy 1: not shown
heavy 2: not shown
light: DIVMTQSPLSLPVTPGEPASISCQASESLVHSNRNTYLHWYLQKPGQSPQLLIYKVSNRFSGVPDRFSGSGSGTDFTLKISRVEAEDVGVYYCSQNTHVPPTFGQGTKVEIERTVAAPSVFIFPPSDEQLKSGTASVVCLLNNFYPREAKVQWKVDNALQSGNSQESVTEQDSKDSTYSLSSTLTLSKADYEKHKVYACEVTHQGLSSPVTKSFNRGEC
notes: heterodimerized IgG1 (He Ab), mutation in one H chain only; also called He Ab
B2: GpH7-A5/GpH7-B3 variant P331_03V/GpL16-k0 (antibody, human IgG1, kappa)
heavy 1: not shown
heavy 2: not shown
light: B1 light
notes: as for B1
B3: GpH7-A5/GpH7-B3 variant P331_06M/GpL16-k0 (antibody, human IgG1, kappa)
heavy 1: not shown
heavy 2: not shown
light: B1 light
notes: as for B1
B4: GpH7-A5/GpH7-B3 variant P331_13S/GpL16-k0 (antibody, human IgG1, kappa)
heavy 1: not shown
heavy 2: not shown
light: B1 light
notes: as for B1
B5: GpH7-A5/GpH7-B3 variant P331_12R/GpL16-k0 (antibody, human IgG1, kappa)
heavy 1: not shown
heavy 2: not shown
light: B1 light
notes: as for B1
B6: GpH7-A5/GpH7-B3 variant K334_12R/GpL16-k0 (antibody, human IgG1, kappa)
heavy 1: not shown
heavy 2: not shown
light: B1 light
notes: as for B1
B7: GpH7-A5/GpH7-B3 variant P331_09D/GpL16-k0 (antibody, human IgG1, kappa)
heavy 1: not shown
heavy 2: not shown
light: B1 light
notes: as for B1
B8: GpH7-A5/GpH7-B3 variant P331_02A/GpL16-k0 (antibody, human IgG1, kappa)
heavy 1: not shown
heavy 2: not shown
light: B1 light
notes: as for B1
B9: GpH7-A5/GpH7-B3 variant P331_20W/GpL16-k0 (antibody, human IgG1, kappa)
heavy 1: not shown
heavy 2: not shown
light: B1 light
notes: as for B1
B10: GpH7-A5/GpH7-B3 variant P331_08L/GpL16-k0 (antibody, human IgG1, kappa)
heavy 1: not shown
heavy 2: not shown
light: B1 light
notes: as for B1
B11: GpH7-A5/GpH7-B3 variant P331_04F/GpL16-k0 (antibody, human IgG1, kappa)
heavy 1: not shown
heavy 2: not shown
light: B1 light
notes: as for B1
B12: GpH7-A5/GpH7-B3 variant K334_16H/GpL16-k0 (antibody, human IgG1, kappa)
heavy 1: not shown
heavy 2: not shown
light: B1 light
notes: as for B1
B13: GpH7-A5/GpH7-B3 variant P331_07I/GpL16-k0 (antibody, human IgG1, kappa)
heavy 1: not shown
heavy 2: not shown
light: B1 light
notes: as for B1
B14: GpH7-A5/GpH7-B3 variant K334_14T/GpL16-k0 (antibody, human IgG1, kappa)
heavy 1: not shown
heavy 2: not shown
light: B1 light
notes: as for B1
B15: GpH7-A5/GpH7-B3 variant K334_15Y/GpL16-k0 (antibody, human IgG1, kappa)
heavy 1: not shown
heavy 2: not shown
light: B1 light
notes: as for B1
B16: GpH7-A5/GpH7-B3 variant P331_15Y/GpL16-k0 (antibody, human IgG1, kappa)
heavy 1: not shown
heavy 2: not shown
light: B1 light
notes: as for B1
B17: GpH7-A5/GpH7-B3 variant P331_11K/GpL16-k0 (antibody, human IgG1, kappa)
heavy 1: not shown
heavy 2: not shown
light: B1 light
notes: as for B1
B18: GpH7-A5/GpH7-B3 variant P331_14T/GpL16-k0 (antibody, human IgG1, kappa)
heavy 1: not shown
heavy 2: not shown
light: B1 light
notes: as for B1
B19: GpH7-A5/GpH7-B3 variant P331_10E/GpL16-k0 (antibody, human IgG1, kappa)
heavy 1: not shown
heavy 2: not shown
light: B1 light
notes: as for B1
B20: GpH7-A5/GpH7-B3 variant K334_13S/GpL16-k0 (antibody, human IgG1, kappa)
heavy 1: not shown
heavy 2: not shown
light: B1 light
notes: as for B1
B21: GpH7-A5/GpH7-B3 variant P331_16H/GpL16-k0 (antibody, human IgG1, kappa)
heavy 1: not shown
heavy 2: not shown
light: B1 light
notes: as for B1
B22: GpH7-A5/GpH7-B3 variant K334_18N/GpL16-k0 (antibody, human IgG1, kappa)
heavy 1: not shown
heavy 2: not shown
light: B1 light
notes: as for B1
B23: GpH7-A5/GpH7-B3 variant P331_18N/GpL16-k0 (antibody, human IgG1, kappa)
heavy 1: not shown
heavy 2: not shown
light: B1 light
notes: as for B1
B24: GpH7-A5/GpH7-B3 variant P331_19Q/GpL16-k0 (antibody, human IgG1, kappa)
heavy 1: not shown
heavy 2: not shown
light: B1 light
notes: as for B1
B25: GpH7-A5/GpH7-B3 variant K334_20W/GpL16-k0 (antibody, human IgG1, kappa)
heavy 1: not shown
heavy 2: not shown
light: B1 light
notes: as for B1
B26: GpH7-A5/GpH7-B3 variant K334_19Q/GpL16-k0 (antibody, human IgG1, kappa)
heavy 1: not shown
heavy 2: not shown
light: B1 light
notes: as for B1

target: T4, FcγRIIIa extracellular domain with C-terminal His tag (human, UniProt P08637 17-208); assay: SPR; % of GpH7-A5/GpH7-B3/GpL16-k0
T4 construct: extracellular domain; also called 3a; CD16
T4 sequence (P08637 other isoform, or with tags, fused parts or gaps): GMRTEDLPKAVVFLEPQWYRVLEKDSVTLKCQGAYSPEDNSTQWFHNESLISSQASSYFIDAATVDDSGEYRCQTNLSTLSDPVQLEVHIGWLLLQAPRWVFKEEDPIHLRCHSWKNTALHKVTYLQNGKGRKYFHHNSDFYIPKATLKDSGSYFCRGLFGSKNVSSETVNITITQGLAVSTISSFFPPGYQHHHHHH

| He/Con 3a [%] | Binder |
| --- | --- |
| 186 | B1 |
| 66.9 | B2 |
| 68.4 | B3 |
| 80.9 | B4 |
| 64.8 | B5 |
| 93.5 | B6 |
| 71.6 | B7 |
| 82.5 | B8 |
| 71.9 | B9 |
| 66 | B10 |
| 70.7 | B11 |
| 138 | B12 |
| 60.4 | B13 |
| 146 | B14 |
| 145 | B15 |
| 74.9 | B16 |
| 61.8 | B17 |
| 67.8 | B18 |
| 68.7 | B19 |
| 150 | B20 |
| 73.4 | B21 |
| 140 | B22 |
| 67.1 | B23 |
| 73.9 | B24 |
| 132 | B25 |
| 140 | B26 |

target: T1, FcγRIIb extracellular domain with …; assay: SPR; % of GpH7-A5/GpH7-B3/GpL16-k0

| He/Con 2b [%] | Binder |
| --- | --- |
| 148 | B1 |
| 132 | B2 |
| 113 | B3 |
| 107 | B4 |
| 85 | B5 |
| 144 | B6 |
| 104 | B7 |
| 110 | B8 |
| 123 | B9 |
| 106 | B10 |
| 122 | B11 |
| 146 | B12 |
| 127 | B13 |
| 149 | B14 |
| 141 | B15 |
| 127 | B16 |
| 93.9 | B17 |
| 111 | B18 |
| 128 | B19 |
| 143 | B20 |
| 128 | B21 |
| 148 | B22 |
| 110 | B23 |
| 94 | B24 |
| 134 | B25 |
| 141 | B26 |

target: T5, FcγRIa extracellular domain with C-terminal His tag (human, UniProt P12314 16-292); assay: SPR; % of GpH7-A5/GpH7-B3/GpL16-k0
T5 construct: extracellular domain; also called 1a; CD64
T5 sequence (P12314 other isoform, or with tags, fused parts or gaps): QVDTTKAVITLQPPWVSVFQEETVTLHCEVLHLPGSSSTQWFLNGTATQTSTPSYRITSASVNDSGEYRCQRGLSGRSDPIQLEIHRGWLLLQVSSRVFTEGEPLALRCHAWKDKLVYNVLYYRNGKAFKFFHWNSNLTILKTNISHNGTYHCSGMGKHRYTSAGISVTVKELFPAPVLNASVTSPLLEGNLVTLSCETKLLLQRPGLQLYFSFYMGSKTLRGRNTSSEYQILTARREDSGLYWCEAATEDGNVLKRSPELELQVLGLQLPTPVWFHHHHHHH

| He/Con 1a [%] | Binder |
| --- | --- |
| 104 | B1 |
| 104 | B2 |
| 106 | B3 |
| 108 | B4 |
| 100 | B5 |
| 98.2 | B6 |
| 109 | B7 |
| 105 | B8 |
| 107 | B9 |
| 105 | B10 |
| 108 | B11 |
| 99.3 | B12 |
| 106 | B13 |
| 99.2 | B14 |
| 99.1 | B15 |
| 109 | B16 |
| 100 | B17 |
| 102 | B18 |
| 108 | B19 |
| 99.3 | B20 |
| 105 | B21 |
| 99 | B22 |
| 106 | B23 |
| 108 | B24 |
| 99.9 | B25 |
| 100 | B26 |

target: T2, FcγRIIa(R) extracellular domain with …; assay: SPR; % of GpH7-A5/GpH7-B3/GpL16-k0

| He/Con 2aR [%] | Binder |
| --- | --- |
| 144 | B1 |
| 114 | B2 |
| 105 | B3 |
| 104 | B4 |
| 88.7 | B5 |
| 151 | B6 |
| 101 | B7 |
| 105 | B8 |
| 109 | B9 |
| 101 | B10 |
| 110 | B11 |
| 149 | B12 |
| 109 | B13 |
| 153 | B14 |
| 148 | B15 |
| 112 | B16 |
| 94.6 | B17 |
| 104 | B18 |
| 112 | B19 |
| 149 | B20 |
| 113 | B21 |
| 152 | B22 |
| 104 | B23 |
| 96.1 | B24 |
| 143 | B25 |
| 149 | B26 |

target: T3, FcγRIIa(H) extracellular domain with …; assay: SPR; % of GpH7-A5/GpH7-B3/GpL16-k0

| He/Con 2aH [%] | Binder |
| --- | --- |
| 113 | B1 |
| 85.4 | B2 |
| 88.1 | B3 |
| 94 | B4 |
| 84.3 | B5 |
| 114 | B6 |
| 93.6 | B7 |
| 93.9 | B8 |
| 85.8 | B9 |
| 85.9 | B10 |
| 87.7 | B11 |
| 119 | B12 |
| 80.1 | B13 |
| 118 | B14 |
| 122 | B15 |
| 89 | B16 |
| 83.7 | B17 |
| 86.5 | B18 |
| 90.1 | B19 |
| 116 | B20 |
| 87.5 | B21 |
| 114 | B22 |
| 87.2 | B23 |
| 91.6 | B24 |
| 112 | B25 |
| 116 | B26 |
